For one data set, the system named is A. fumigatus. In words: Ega3 inhibition of A. fumigatus biofilm formation (crystal violet, imaged). The data set is classed as cell-based. The note with it: 1 μM, 18 h. As for the experimental part: A. fumigatus conidia were inoculated into polystyrene, round-bottom 24-well plates at a concentration of 10^5 conidia/well in DMEM media. To assess the inhibition of biofilm formation, Ega346-318 was added at a final concentration of 1 μM and the conidia incubated for 18 h at 37° C., 5% CO2. The resulting biofilms were then gently washed twice with distilled water, and stained with 0.1% crystal violet for 10 min. Samples were washed twice with water and the wells were imaged.

Another data set relates to A. fumigatus hyphae. In words: SBA-FITC lectin staining of A. fumigatus hyphae after Ega3 treatment. The data set is classed as cell-based. As to conditions: 0.5 μM, 3 h.
Data set [1] has as its system preformed A. fumigatus biofilm. The experiment in a line: Ega3 disruption of preformed A. fumigatus biofilm. The note with it: 1 μM, 1.5 h, room temperature. In kind it is cell-based. As for the experimental part: To determine the effect hydrolase has on a preformed biofilm, 10^5 A. fumigatus conidia were inoculated per well in DMEM media as above, but in the absence of hydrolase. Following 18 h incubation at 37° C., 5% CO2, the resulting biofilm was treated with Ega346-318 at a final concentration of 1 μM for 1.5 h at room temperature on a nutator. The biofilms were then washed and stained as mentioned above.

Data set [2] relates to P. aeruginosa PAO1 ΔwspFΔpslpBADpel. The experiment in a line: Inhibition of Pel biofilm formation in static culture (crystal violet).
Data set [3] has as its system PNAG-overproducing E. coli biofilms. The experiment in a line: Dispersal of pre-formed PNAG-dependent E. coli biofilms.
Method: Bacterial cultures expressing Psl were inoculated as stated above and were grown at 37° C. overnight with shaking at 200 rpm. All cultures were diluted in 1:100 in LB and arabinose was added to a final concentration of 0.5% (w/v) to induce Psl biosynthesis. Media containing the Psl-producing cultures were supplemented with 200 μg/mL ampicillin and 100 μg/mL kanamycin. The cultures were incubated statically for 24 h at 26° C. to allow for biofilm formation. After incubation non-adherent cells and media were removed by washing the plate with deionized water three times. The wells were filled with 95 μL of 100 mM sodium HEPES buffer pH 7.0 followed by 5 μL of varying concentrations of each hydrolytic enzyme (2 nM-5 μM). Reactions were allowed to proceed for up to 60 min at 25° C. on a rotating nutator at which time, the reaction was quenched by washing the plates with deionized water. The wells were stained with 200 μL of 0.1% (w/v) crystal violet for 10 min, and washed with water three times. Crystal violet dye from Psi cultures was solubilized in 100 μL of 95% ethanol for 10 min with rotation, after which time the absorbance was measured at 595 nm using a SpectraMax M2 from Molecular Devices (Sunnyvale, Calif.). The amount of biofilm is proportional to the absorbance from staining with crystal violet (Merritt et al 2005). All reactions were completed in at least triplicate and 100 mM sodium HEPES buffer pH 7.0 was used as an untreated control. The addition of 2.5 mg/mL kanamycin to culture prior to biofilm formation was used as a positive control as no cell growth occurs.
PNAG-overproducing E. coli was grown at 37° C. overnight in LB broth supplement with 200 ug/mL ampicillin and 100 ug/mL kanamycin with shaking at 200 rpm. An E. coli μgaABCD knockout strain was used as a non-biofilm forming control for background straining.
Data set [4] concerns P. aeruginosa PAO1 pBADpsl. The experiment in a line: Inhibition of Psl biofilm formation in static culture (crystal violet). In kind it is cell-based, Pseudomonas aeruginosa.
For data set [5], the system named is Psl biofilms of P. aeruginosa PAO1 pBADpsl. In words: Dispersal of pre-formed Psl biofilms (crystal violet). The data set is classed as cell-based, Pseudomonas aeruginosa.
For data set [6] the following is noted: purified protein.
For data set [7], the system named is pre-formed A. fumigatus GAG biofilms. The data set is classed as cell-based. The note with it: crystal violet.
For data set [8], the system named is Pel biofilms of P. aeruginosa PAO1 ΔwspFΔpslpBADpel. In words: Dispersal of pre-formed Pel biofilms (crystal violet).
From the text: The methodology to generate pre-formed Pel biofilms is identical to that of Psl biofilms, described in Example 4 with the exception that the strain used is P. aeruginosa PAO1 ΔwspFΔpslpBADpel.
The next data set deals with A. fumigatus GAG biofilm. The experiment in a line: Inhibition of GAG-dependent A. fumigatus biofilm formation (crystal violet). The data set is classed as cell-based.
Another data set relates to Trichosporon asahii. In words: SBA-FITC lectin staining of Trichosporon asahii after hydrolase treatment. The data set is classed as cell-based. The note with it: 0.5 μM, 3 h. As for the experimental part: To assess the effects of hydrolase treatment on Trichosporon asahii, 1×10^5 T. asahii yeast cells or A. fumigatus conidia were inoculated in Dulbecco's Modified Eagle Medium (DMEM), and grown for 10 h at 37° C., 5% CO2 on glass coverslips. Wells were gently washed once with Ham's F-12K (Kaighn's) Medium (F12K) media, and Sph3AC(54-304) was added at a final concentration of 0.5 μM in F12K, and incubated for an additional 3 h at 37° C., 5% CO2. Young hyphae were washed twice with PBS, and stained with FITC tagged SBA for 1 h. The stained samples were washed with PBS and fixed with 4% PFA for 15 min. Slides were then mounted, sealed, and imaged under confocal microscopy with a 488 nm laser (Zeiss).

For data set [9], the system named is RFP-expressing Af293 hyphae. In words: Uptake of Bodipy-conjugated posaconazole by hyphae (confocal microscopy). The data set is classed as cell-based, A. fumigatus. The note with it: 0.5 μM pretreatment 90 min. The method, then:
Red Fluorescent Protein (RFP)-expressing Af293 hyphae were pretreated with 0.5 μM Sph3AC(54-304) hydrolase for 90 min before treatment with Bodipy-conjugated posaconazole (BDP-PCZ). At various time points, samples were fixed and imaged using fluorescent confocal microscopy to determine the kinetics of drug penetration of hyphae.

Data set [10] concerns A549 pulmonary epithelial cell line injured by A. fumigatus. In words: Chromium release epithelial cell damage assay. As to conditions: recombinant Sph3 hydrolases, up to 24 h.
Method: The immortalized airway epithelial cell line A549 was loaded with chromium-51 by incubating monolayers grown in 24-well tissue culture plates with 3 mCi of ^51Cr at 37° C. in 5% CO2 for 24 h. Excess chromium was removed by washing with Hank's Balanced Salt Solution (HBSS). […] For testing germ tubes, conidia were grown for 7 h in SAB media at 37° C., then the fungus was collected and resuspended in DF12K media before 0.5 μM of hydrolase was added. The germ tubes were incubated with hydrolase for 1 h before being added to the A549 cells. After 16, 20 and 24 h of co-incubation, an aliquot of the medium above the cells was retrieved and replaced with fresh media. The cells were then lysed with 6 N NaOH and the lysate collected. The ^51Cr content of the medium and lysates was then measured in a gamma counter and the extent of epithelial cell damage was calculated as a function of the degree of ^51Cr release. Each strain was tested in triplicate, and all results were corrected for spontaneous chromium release by uninfected epithelial cells.
The methodology for prevention of epithelial cell damage caused by A. fumigatus using Sph352-298 is identical to that previously described in Example 19 for the use PelA47-303.
Data set [11] has as its system Botrytis cinerea isolate 7b1. In words: Lectin staining of Botrytis cinerea hyphae after hydrolase treatment. As to conditions: 1 μM. In kind it is cell-based. The method, then:
Botrytis cinerea isolate 7b1 was inoculated at a concentration of 6×10^3 conidia/ml in 500 μl of Brian media on poly-D-lysine-coated coverslips (Corning, Bedford, Mass.) for 17 h at room temperature, in the dark. Samples were incubated either in the presence or absence of 1 μM Sph3AC(54-304). Media was then removed and the hyphae were incubated in PBS with or without 1 μM Sph3AC(54-304) for 1 h at room temperature. Samples were washed twice with PBS, and stained with 30 μg/mL of Wisteria fluoribunda (WFL) lectin conjugated to fluoresceine for 2 h at 4° C. Samples were washed twice with PBS, and fixed with 4% paraformaldehyde for 10 min at 4° C. Samples were washed once and stained with a 1:1000 dilution of DRAQ5™ (eBioscience, San Diego, Calif.) for 5 min at room temperature. Samples were washed once with PBS, mounted onto microscope slides using SlowFade® Gold antifade reagent (life Technologies™, Eugene, Oreg.), and sealed with nail polish. Images were acquired on an Olympus Fluoview confocal laser microscope using 488 and 633 nm lasers coupled with BA505-525 and BA650IF filters, respectively. Z-stacks of 0.2 μm increments were acquired, and 3D-rendered using ImageJ software (National Institutes of Health).

Entries after “also recorded” stand apart in the source; their conditions may differ. Where two headings read alike, the source gives them in different places.

B1: Ega346-318: soluble Ega3 residues 46-318, Aspergillus fumigatus Af293, SEQ ID NO: 21 (protein, listed as Aspergillus fumigatus)
chain: GLGGGGGGEGEEGSGGETTPPEGNYTTAKWQPAVGTKWQIELLYALNDTSVDAEIYDIDLFINDKSTIAGLQRAGRKVICYFSAGSYENWRPDKDKFKDSDLGHDLDDWPGEKWLNISSANVRQIMLDRLDMARDKGCDGVDPDNVDGYDNDNGLDLTQADSISFVNFLANAAHARNMSIGLKNAGDIIPSVIKNMQWSVNEQCAQYNECDTYAVFPQNGKPVFHIEYPKGDKTNNDLSVTASQKNAACDFAGSANFSTVIKNMNLNNWVEYC
B1: in the data set with A. fumigatus, the “A. fumigatus biofilm formation / adherence in presence of enzyme” value is reported as “prevented biofilm formation; also recorded: completely non-adherent”. In addition, the “detectable GalNAc on hyphal surface after treatment” value in the data set with A. fumigatus hyphae is “complete loss of detectable”. In addition, the “effect on preformed 18 h A. fumigatus biofilm” value in data set [1] is “allowed for disruption of the biofilm”.

B2: PslG31-442: soluble PslG glycosyl hydrolase construct, residues 31-442, P. aeruginosa PAO1, SEQ ID NO: 11 (protein, listed as Pseudomonas aeruginosa)
chain: EIQVLKAPRAVVWKDFLGVNAQFLWFSPERYNKQIDRLQDLGLEWVRLDLHWDRLETAEDQYQLASLDQLVKDLEARQLKSVFYLVGSARFITTAPFYSPFQDQYPPRDPEVFARRMAMLSQRYPSVAAWQVWNEPNLIGFWRPKADPEGYAKLLQASTIALRMVDPEKPVVSAGMAFFSEMPDGRTMFDALGHLGVESLGTIATYHPYTQLPEGNYPWNLDFVSHANQINRALRNAGVPAIWSTEWGWSAYKGPKELQDIIGVEGQADYVLRRLALMSALDYDRIFLFTLSDLDQRASVRDRDYGLLDLDANPKPVYLALQRFLKVTGPKLRPADPPVTEDLPDGSFSIGWTREDGRNVWLFWSARGGNVRLPKLKEATLHDPLSGKVTPLSGSDGLEVPVKSSLQMLVWE
As to B2, the “inhibition of Pel biofilm formation (in words)” value in data set [2] (specificity control) is “did not inhibit Pel biofilm formation; also recorded: unable at preventing biofilm formation”. For the same molecule, the “dispersal of PNAG-dependent biofilms (in words)” value in data set [3] is reported as “had no affect”. For the same molecule, the “effect on PAO1 growth” value in data set [4] (10 μM enzyme) was “did not prevent PAO1 growth”. In data set [4] (PAO1 pBADpsl, static 24 h at 26° C., crystal violet), this molecule gave an EC50 of 4.1 ± 1.1 nM. Besides, the “time to disperse pre-formed Psl biofilm” value in data set [5] (58 nM enzyme) was 30 min. Further, in [5] (86 nM enzyme), the “time to disperse / completely abolish pre-formed Psl biofilm” value is recorded as 35 min. In addition, in data set [5] (86 nM enzyme, after 20 min), the “effect on pre-formed Psl biofilm” value is reported as “significant reduction of the biofilm”. In addition, in [6], the “concentration to which the protein could be concentrated” value is 8000 to 10000 µg/mL.

B3: PelA35-291: PelA residues 35-291 from P. protogens Pf-5, SEQ ID NO: 13 (protein, listed as Pseudomonas protogens)
chain: AAPASVGFWYAEQPPLQELAQFEWAVVEPGHMASADVATLRKLGSQPFAYLSVGEFDGNRAALAKQALAQGASPVRNKAWDSQVMDIATPAWREHLFKRAKALQDQGYAGLFLDTLDSFQLLPEADREPQRKALASFLRELHSRLPNLKLFFNRGFEVLGELDGVASAVAVESIHAGWDASAKRYRPVSEADRTWLEGELKPLRARNIPLVAIDYLPANRREEARKLVRQLSQEGFIPVVTTPDLNALSMSTVEVQP
Consider B3, for which, in data set [2] (read-out: EC50 of Pel biofilm inhibition, static PAO1ΔwspFΔpslPBADpel culture), the half-maximal effective concentration (EC50) was found to be 69.3 ± 1.2 nM. In addition, the “dispersal of pre-formed GAG biofilm (in words)” value in data set [7] is given as “elimination of the GAG biofilm”; in data set [7] (listed as P. protogens PelA35-291), “elimination of the GAG biofilms”. For the same molecule, in [8] (1 μM enzyme), the “time to disperse pre-formed Pel biofilm” value is on record as 30 min. Moreover, the “dispersal of pre-formed Pel biofilm (in words)” value in [8] (10-fold dilution of 1 μM, 1 h) is reported as “disperse nearly all the biofilm”. Moreover, in the data set with A. fumigatus GAG biofilm (20 h in Brian media, crystal violet, listed as P. protogens PelA35-291), the “prevention of GAG biofilm formation (in words)” value is on record as “shown to prevent GAG-dependent biofilm formation”.

B4: Sph3AC(54-304): Sph3 ortholog residues 54-304, Aspergillus clavatus NRRL 1, SEQ ID NO: 22 (protein, listed as Aspergillus clavatus)
chain: MGPKSKVFVPLYVYPAPGAWDPLEDVISKHPDVNFTVVINPGSGPGPEALPDGNYTREIPKLASYENVRLLGYVATTYAKRNISEVRRDIETYAAWPTQSSNANLAVRGIFFDETPQQYDADILAYLRELTDVVKGTSGLGPDHYVVHNPGAIPDSRYLSTADSTVVFEATYATFQERHGAELFDTIPDSHRDQLCAVIHSVPTSVEGSDLRGLVKQVRQVADEIFITHLETDYYAGFGGQWSEFVDLMAS
For B4, the “dispersal of pre-formed GAG biofilm (in words)” value in [7] was “capable of disrupting GAG-dependent biofilms”. In the data set with Trichosporon asahii, the “surface GalNAc exopolysaccharide of T. asahii after treatment” value is listed as “complete loss”. Further, the “uptake of fluorescent-tagged posaconazole by hyphae” value in data set [9] was “increases the activity of antifungals; also recorded: increased the speed and degree of uptake”. For the same molecule, the “epithelial cell damage by A. fumigatus, chromium release” value was “completely protected epithelial cells from damage by A. fumigatus for 24 h” in [10] and “reduced fungal damage to epithelial cells” in [10] (listed as Sph3 from A. clavatus). Moreover, the “inhibition of A. fumigatus biofilm formation by recombinant Sph3 (in words)” value in the data set on A. fumigatus GAG biofilm is recorded as “inhibit the formation of A. fumigatus biofilms in a dose dependent manner”. In addition, the “GAG exopolysaccharide on B. cinerea hyphae after treatment” value in data set [11] is reported as “complete loss of this exopolysaccharide”.

Broadly, the EC50 is the concentration at which the effect is half-maximal.

The values are drawn from US11672846B2, “Soluble bacterial and fungal proteins and methods and uses thereof in inhibiting and dispersing biofilm” (priority 2014, dated 2023).
